Laboratory results from US20160310607A1, “CELL TRANSPORT” (CUPID PEPTIDE COMPANY LIMITED, priority 2013, published 2016).

Columns and labels:
[1] = tested on: Dictyostelium discoideum amoeba cells; assay: Permeation of FITC-labelled peptides into cultured Dictyostelium cells (fluorescence microscopy); format: cell-based; conditions: FITC-labelled peptide, 20 micromolar, 1 hour
Description: Peptides were labelled with Fluorescein isothiocyanate (FITC) using a FITC labeling kit as per instructions (Pierce, UK). When added to cell cultures the labeled peptides were visualized using a fluorescent microscope by exciting the FITC with a 488 nm spectral line, argon-ion laser (Excitation wavelength of 494 nm and an Emission wavelength of 518 nm).
AX2 wild type Dictyostelium cells were grown on SM agar plates seeded with Aerobacter aerogenes bacteria (also known as Klebsiella aerogenes) as a food source.
Cupid A ([…]) and Cupid B ([…]) were chemically synthesized labelled with FITC at the amino terminal. The peptides were added to cultured eukaryotic cells of Dictyostelium discoideum amoeba for varying amounts of time up to 2 hours. Cells were then washed and prepared for examination under a fluorescent microscope (FIG. 1). The time courses of permeation were compared to the class 3 CPP, the Antennapedia peptide, pANT which was also labelled with FITC in chemical synthesis (FIG. 2).

[2] = tested on: PTEN; assay: Protein phosphorylation response to cyclic AMP in starving Dictyostelium cultures (antibody detection on SDS gels); format: cell-based, Dictyostelium discoideum; conditions: pre-treated for 1 hour with 10 micromolar peptide
Description: FIG. 10. In starving Dictyostelium cultures, several proteins undergo rapid phosphorylation/dephosphorylation events in response to an applied dose of cyclic AMP. The strength of this response is limited by PTEN enzyme activity. This response is visualised with antibody detection of these phosphoproteins on SDS gels prepared from extracted cultures at the time points indicated after the cAMP dose.
In starving Dictyostelium cultures, several proteins undergo rapid phosphorylation/dephosphorylation events in response to an applied dose of cyclic AMP. The strength of this initial phosphorylation response is limited by PTEN enzyme activity and is associated with changes in PIP2 and PIP3 inositol phospholipid levels.

[3] = tested on: PTEN; assay: Inositol phospholipid levels in starving Dictyostelium cells (solvent extraction, thin layer chromatography); format: cell-based, Dictyostelium discoideum; conditions: 10 micromolar, 1 hour, starving wild-type Dictyostelium
Description: FIG. 9. The levels of the 4 inositol phospholipids (PI, PIP, PIP2 and PIP3) in wild-type Dictyostelium cells undergoing starvation were measured by solvent extraction of cell cultures and analysis using thin layer chromatography. The effect of Cupid B-PTEN peptide treatment (10 micromolar, 1 hour) was calculated as a percentage change in the basal (untreated) levels.
The PTEN protein has a phospholipase enzymatic activity that functions to remove phosphate groups from inositol-based lipids and as such is involved with maintaining the balance between varieties of inositol phospholipids present at the cell surface. In wild-type cells undergoing starvation the inositol phospholipids with 3 and 4 phosphate groups (PIP2 and PIP3) are kept low, largely due to the action of PTEN.
We determined the effect of Cupid B-PTEN peptide on the inositol phospholipid levels in Dictyostelium cultures. Cupid B-PTEN peptide treated cells (10 micromolar, 1 hour) alters the basal levels of inositol phospholipids in Dictyostelium cells.

[4] = tested on: PTEN; assay: Streaming and aggregation of starved wild-type Dictyostelium cultures compared with the PTEN null mutant; format: cell-based, Dictyostelium discoideum; conditions: 10 micromolar, wild-type cells, visualised after 10 hours
Description: FIG. 8. Cupid can transport large molecule cargo into the cell. Starved Dictyostelium cultures were plated into petri dishes in starvation buffer and visualised after 10 hours. In untreated wild-type (WT) cultures (A), cells stream together into aggregation centres, co-ordinated by cell to cell signaling.
In Dictyostelium, a genetic mutant in which the PTEN gene is absent causes marked changes in phenotype.

B1: Cupid B-PTEN: Cupid B fused to a 167 amino acid region (C2 region, 186-352) of human PTEN, with 6x Histidine (protein)
chain: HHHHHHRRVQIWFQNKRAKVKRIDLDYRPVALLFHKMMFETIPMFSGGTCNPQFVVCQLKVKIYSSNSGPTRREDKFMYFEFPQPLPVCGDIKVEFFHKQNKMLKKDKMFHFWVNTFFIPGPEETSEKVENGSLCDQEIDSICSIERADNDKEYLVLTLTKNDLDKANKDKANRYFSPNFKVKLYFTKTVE
modifications: FITC label
notes: Cupid B fused to a 167 amino acid region (C2 region, 186-352) of human PTEN, with 6x Histidine
With B1 the “cell permeation (fluorescence microscopy)” value [1] was “cell permeable”, the “initial phosphorylation response to cyclic AMP versus untreated cultures” value [2] was “much stronger initial phosphorylation response” and the “initial phosphorylation response to cyclic AMP versus untreated cultures” value ([2]; listed as Cupid-PTEN) was “much greater phosphorylation response”. The “change of PIP2 level relative to untreated basal level” value [3] was “+75%”, the “change of PIP3 level relative to untreated basal level” value [3] was “+150%” and the “streaming/aggregation behaviour of starved wild-type Dictyostelium” value [4] was “exhibit the same distinctive behaviour as the PTEN-Null strain”. For the same molecule, the “streaming/aggregation behaviour of starved wild-type Dictyostelium” value ([4]; listed as Cupid-PTEN) was “cells failed to stream together or aggregate”.
